These results are taken from patent US20150086558A1 (ACADEMIA SINICA, published 2015).

The target in assay [1] is T1, P1 peptide, junction peptide of CH4-CεmX (SVNPGLAGGSAQSQRAPDRVL) (human).
T1 construct: Synthetic peptide coated on ELISA plates at 10 ug/mL
T1 peptide: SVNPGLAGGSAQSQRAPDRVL
Put plainly: ELISA screen of hybridomas on coated P1 peptide. How it is done:
Hybridoma cells secreting antibodies with the desired antigen-binding activities were screened as follows. Microtiter plates were coated by incubating with 10 μg/mL of P1 peptide and various other peptides or 1 μg/mL of various recombinant CεmX-fusion proteins in carbonate buffer, 0.1M, pH 9.6, overnight at 4° C. The wells were blocked with 1% BSA in PBS, pH=7.3 for 1 hour and incubated with the antisera or control antibodies at various dilutions for 1 hour at 37° C. After washing, the ligand-bound antibodies were detected by HRP-conjugated goat anti-mouse IgG, Fcγ fragment specific (Jackson ImmunoResearch) at 1:10,000 and incubated for 1 hour at 37° C., followed by incubation with TMB substrate (Clinical Scientific Products). The OD was determined at 450 nm. Positive clones were selected for further characterization.
On the technique in general: ELISA stands for enzyme-linked immunosorbent assay.

The target of assay [2] is T2, P1.15 peptide SVNPGLAGGSAQS (human).
T2 peptide: SVNPGLAGGSAQS
Put plainly: ELISA on coated synthetic peptide.

Assay [3] addresses T3, IgE.CH3-CH4 recombinant protein (UniProt P01854 211-426, limits assumed).
T3 construct: domain: CH3-CH4; Recombinant protein coated at 1 ug/mL in ELISA
As to the kind of experiment: ELISA on coated recombinant protein.

T3 sequence (P01854 211-426 limits assumed): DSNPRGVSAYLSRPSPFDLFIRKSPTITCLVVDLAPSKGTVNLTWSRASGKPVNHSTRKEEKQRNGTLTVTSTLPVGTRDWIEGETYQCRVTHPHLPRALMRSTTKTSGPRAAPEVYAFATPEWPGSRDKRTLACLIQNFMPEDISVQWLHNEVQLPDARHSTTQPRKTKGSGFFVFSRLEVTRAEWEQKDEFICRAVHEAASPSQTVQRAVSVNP

B1: monoclonal anti-IgE antibody mAb 5A8 (antibody, V domains shown)
VH: QVQLKQSGPGLVAPSQSLSITCTVSGFSLTDYGVNWVRQPPGKGLEWLGMIWGDGSTDYNSTLKSRLSISKDNSKSQVFLKINSLQTDDTARYYCALNWFAYWGQGTLVTAAA
VL: NIVMTQSPAIMSASPGEKVTMTCSASSSVNYMHWYQQKSGTSPKRWIYDTSKLASGVPARFSGSGSGTSYSLTISSMEAEDAATYYCQQWSSNPWTFGGGTKLEIK
notes: Mouse hybridoma monoclonal antibody; It was detected with anti-mouse IgG reagents
Take B1: the binding result in assay [1] is “binds”.

B2: monoclonal anti-IgE antibody mAb 2H9 (antibody, V domains shown)
VH: QVQMQQPGAELVRPGASVKMSCRTSGYTFTNYNVHWLKQTPGQGLEWIGGMYPGNDDILYNQNFKDRATLTADRSSSTAYIQLRSLTSEDSAVYYCTRSGLQGPWFDYWGQGTLVTVSA
VL: DIQMTQSSSYLSVSLGGRVTISCRASDHINNWLAWYQQKPGNAPRLLISSATSLETGVPSRFSGSGSGKDYSLTIISVQTEDVATYYCQQCWITPFTFGSGTKLEIK
notes: Mouse hybridoma monoclonal antibody from BALB/c mice immunized with HBcAg-P1; It was detected with anti-mouse IgG reagents
B2: the binding result in assay [1] is listed as “binds”; in assay [2] it was “binds”; in assay [3], “no binding”.
